Data reported in patent US20240124597A1 (Bristol-Myers Squibb, published 2024).

T1: hCD32a-H131 (human, UniProt P12318 34-217, limits assumed)
T1 construct: His-tagged; H131 allotype; also called FcγRIIa-H131
T1 sequence (looked up): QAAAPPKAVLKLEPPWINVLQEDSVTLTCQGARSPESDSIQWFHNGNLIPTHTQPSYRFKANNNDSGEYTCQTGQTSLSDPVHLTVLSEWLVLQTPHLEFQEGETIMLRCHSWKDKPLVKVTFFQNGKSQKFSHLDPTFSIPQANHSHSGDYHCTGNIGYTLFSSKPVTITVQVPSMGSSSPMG

T2: hCD32a-R131 (human, UniProt P12318 34-217, limits assumed)
T2 construct: His-tagged; R131 allotype; also called FcγRIIa-R131
T2 sequence (looked up): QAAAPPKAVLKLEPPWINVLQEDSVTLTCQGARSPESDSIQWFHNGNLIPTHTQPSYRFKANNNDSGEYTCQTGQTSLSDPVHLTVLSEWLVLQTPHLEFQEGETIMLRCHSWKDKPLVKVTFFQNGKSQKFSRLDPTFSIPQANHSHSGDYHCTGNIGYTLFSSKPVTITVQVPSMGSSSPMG

T3: hCD32b (human, UniProt P31994 43-217, limits assumed)
T3 construct: His-tagged; also called FcγRIIb
T3 sequence (looked up): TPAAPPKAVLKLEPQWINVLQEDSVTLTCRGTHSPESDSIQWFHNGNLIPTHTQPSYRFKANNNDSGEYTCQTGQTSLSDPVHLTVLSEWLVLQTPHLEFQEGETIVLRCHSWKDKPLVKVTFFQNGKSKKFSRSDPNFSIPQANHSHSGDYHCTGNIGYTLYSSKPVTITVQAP


Experiments:
[1] = biological target: T4, human-CD40-monomer protein (human, UniProt P25942 21-193, limits assumed); assay: SPR, Ab captured on protein A, hCD40 monomer 500 and 50 nM, 1:1 fit; purified
T4 construct: Soluble monomer generated in house, used as SPR analyte; also called hCD40; hCD40-monomer
T4 sequence (P25942 21-193 limits assumed): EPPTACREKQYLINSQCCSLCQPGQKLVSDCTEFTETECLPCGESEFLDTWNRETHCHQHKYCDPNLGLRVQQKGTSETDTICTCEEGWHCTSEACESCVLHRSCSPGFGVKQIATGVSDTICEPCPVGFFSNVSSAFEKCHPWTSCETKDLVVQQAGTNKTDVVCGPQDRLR
Experimental: (§1) Titer analysis was performed using Biolayer Interferometry (BLI) on an Octet RED instrument (Fortebio) by capturing antibodies from supernatant using protein A sensor tips and measuring capture response with respect to a standard curve obtained using a control antibody sample. SPR data were obtained by capturing antibodies on a protein A surface and testing the binding of 500 nM and 50 nM injections of human-CD40 analyte, using a BIAcore™ T200 instrument (GE Healthcare). The kinetic data for the two concentrations of hCD40-monomer were fit to a 1:1 Langmuir model, to yield estimates of the kinetic and affinity values for these interactions, and for comparison of the different molecules.

[2] = biological target: T4, human-CD40-monomer protein; assay: SPR, Ab captured on protein A, hCD40 monomer 500 and 50 nM, 1:1 fit; supernatant
Experimental: as §1

[3] = biological target: T4, human-CD40-monomer protein; assay: SPR, Ab captured on protein A, hCD40 monomer 500 and 50 nM, 1:1 fit; supernatant; sup (supernatant); Vh-hz2 / Vk-hz2
Experimental: as §1

[4] = biological target: T5, human CD40 on cells (tonsillar B cells, immature dendritic cells, Ramos-Blue cells) (human, UniProt P25942 21-277); assay: cell-based or functional assay
T5 sequence (P25942 21-277 limits assumed): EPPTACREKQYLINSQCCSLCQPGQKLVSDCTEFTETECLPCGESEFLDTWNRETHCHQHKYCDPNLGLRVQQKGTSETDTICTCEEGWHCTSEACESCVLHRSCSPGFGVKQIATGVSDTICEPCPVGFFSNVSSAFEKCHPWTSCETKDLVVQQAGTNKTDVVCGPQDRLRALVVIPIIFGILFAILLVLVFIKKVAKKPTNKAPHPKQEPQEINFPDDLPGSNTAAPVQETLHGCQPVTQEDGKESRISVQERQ

[5] = biological target: T4, human-CD40-monomer protein; assay: SPR, purified Ab captured on protein A, hCD40 monomer 500-3.9 nM, 25 C, 1:1 Langmuir fit
Experimental: (§2) Based on the sequences, titer, and SPR binding data, antibodies were selected for larger scale expression, purification, and further characterization. SPR analysis using purified antibodies was performed by capturing antibodies on a protein A surface, with binding of a 500-3.9 nM (2:1) dilution series of human-CD40 monomer, at either 25° C. or 37° C. in PBS-T pH 7.1 buffer; the titration data was fit to a 1:1 Langmuir model.
(§3) SPR data are fit to a 1:1 Langmuir model using BIAcore™ T200 evaluation software to obtain values for the association rate constant (ka), dissociation rate constant (kd) and dissociation constant (KD).

[6] = biological target: T4, human-CD40-monomer protein; assay: SPR, purified Ab captured on protein A, hCD40 monomer 500-3.9 nM, 37 C, 1:1 Langmuir fit
Experimental: as §2, §3

[7] = biological target: T5, human CD40 on cells (tonsillar B cells, …); assay: cell-based or functional assay; remark: listed apart in the source
hCD64 [8] = biological target: T6, hCD64 (human, UniProt P12314 16-288, limits assumed); assay: SPR, Ab captured on protein A, hCD64-His 10 µM-1.5 nM as analyte
T6 construct: His-tagged; also called hFcγRI
T6 sequence (P12314 16-288 limits assumed): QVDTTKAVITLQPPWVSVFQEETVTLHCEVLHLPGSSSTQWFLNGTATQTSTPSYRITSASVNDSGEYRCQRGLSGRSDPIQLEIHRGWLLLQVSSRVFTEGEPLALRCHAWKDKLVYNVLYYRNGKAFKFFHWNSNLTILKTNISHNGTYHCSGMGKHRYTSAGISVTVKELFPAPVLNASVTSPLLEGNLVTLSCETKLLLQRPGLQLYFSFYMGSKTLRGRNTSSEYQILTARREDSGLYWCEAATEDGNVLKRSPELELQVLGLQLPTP
Experimental: (§4) FcγR binding SPR: FcγR binding can be measured in vitro using purified FcγRs using methods, such as BIAcore™ surface plasmon resonance (SPR). One method tests the binding of purified His-tagged FcγR proteins (FcγR-his) to antibodies that are captured on a sensor surface containing protein A which has been immobilized using standard ethyl(dimethylaminopropyl) carbodiimide (EDC)/N-hydroxysuccinimide (NHS) chemistry with ethanolamine blocking. These experiments are performed on a BIAcore™ T200 instrument (GE Healthcare, Marlborough, MA) at 25° C. For example, samples of purified antibody at 3 μg/ml concentration are first captured on the immobilized protein A surface using a 15 second (s) contact time at 10 μl/min flow rate. This is followed by the binding of purified FcγR-His proteins at various concentrations, such as 10 μM-1.5 nM (2:1 dilution series) or 10 μM-13.7 nM (2:1 dilution series), using 120 s association and dissociation times at a flow rate of 30 μ/min. All steps are performed in a running buffer consisting of 10 mM NaPO₄, 130 mM NaCl, 0.05% p20 (PBS-T) pH 7.1. FcγR proteins tested in these studies include the “high affinity” FcγR CD64 (hFcγRI), as well as the “low affinity” FcγRs CD32a-H131 (FcγRIIa-H131), CD32a-R131 (FcγRIIa-R131), CD32b (FcγRIIb), CD16a-V158 (FcγRIIIa-V158), and CD16a-F158 (FcγRIIIa-F158), which were expressed and purified in house. […]

hCD64 [9] = biological target: T6, hCD64; assay: SPR, antibody captured on protein A, His-tagged FcγR as analyte; 1:1 Langmuir fit
Experimental: as §4

hCD32a-H131 = biological target: T1, hCD32a-H131; assay: SPR, antibody captured on protein A, His-tagged FcγR as analyte; 1:1 steady state fit
Experimental: (§5) FcγR binding SPR: FcγR binding can be measured in vitro using purified FcγRs using methods, such as BIAcore™ surface plasmon resonance (SPR). One method tests the binding of purified His-tagged FcγR proteins (FcγR-his) to antibodies that are captured on a sensor surface containing protein A which has been immobilized using standard ethyl(dimethylaminopropyl) carbodiimide (EDC)/N-hydroxysuccinimide (NHS) chemistry with ethanolamine blocking. These experiments are performed on a BIAcore™ T200 instrument (GE Healthcare, Marlborough, MA) at 25° C. For example, samples of purified antibody at 3 μg/ml concentration are first captured on the immobilized protein A surface using a 15 second (s) contact time at 10 μl/min flow rate. This is followed by the binding of purified FcγR-His proteins at various concentrations, such as 10 μM-1.5 nM (2:1 dilution series) or 10 μM-13.7 nM (2:1 dilution series), using 120 s association and dissociation times at a flow rate of 30 μ/min. All steps are performed in a running buffer consisting of 10 mM NaPO₄, 130 mM NaCl, 0.05% p20 (PBS-T) pH 7.1. FcγR proteins tested in these studies include the “high affinity” FcγR CD64 (hFcγRI), as well as the “low affinity” FcγRs CD32a-H131 (FcγRIIa-H131), CD32a-R131 (FcγRIIa-R131), CD32b (FcγRIIb), CD16a-V158 (FcγRIIIa-V158), and CD16a-F158 (FcγRIIIa-F158), which were expressed and purified in house. SPR data are fit to either a 1:1 Langmuir model, or a 1:1 steady state model using BIAcore™ T200 evaluation software to obtain values for the association rate constant (ka), dissociation rate constant (kd) and dissociation constant (KD).

hCD32a-R131 = biological target: T2, hCD32a-R131; assay: as above
Experimental: as §5

hCD32b = biological target: T3, hCD32b; assay: as above
Experimental: as §5

hCD16a-V158 = biological target: T7, hCD16a-V158 (human, UniProt P08637 17-208); assay: as above
T7 construct: His-tagged; V158 allotype; also called FcγRIIIa-V158
T7 sequence (P08637 17-208 F176V limits assumed): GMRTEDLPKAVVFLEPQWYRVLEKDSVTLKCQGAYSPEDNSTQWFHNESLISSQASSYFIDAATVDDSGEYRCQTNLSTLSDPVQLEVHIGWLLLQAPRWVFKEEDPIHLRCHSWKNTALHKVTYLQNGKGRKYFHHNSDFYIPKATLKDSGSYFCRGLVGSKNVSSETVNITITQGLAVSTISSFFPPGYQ
Experimental: as §5

hCD16a-F158 = biological target: T8, hCD16a-F158 (human, UniProt P08637 17-208); assay: as above
T8 construct: His-tagged; F158 allotype; also called FcγRIIIa-F158
T8 sequence (P08637 17-208 limits assumed): as the sequence (P08637 17-208 F176V limits assumed) above, with V160F counted along it
Experimental: as §5

hCD64 [10] = biological target: T6, hCD64; assay: SPR, antibody captured on protein A, His-tagged hCD64 as analyte; %Rmax against hCD64 concentration
Experimental: as §4

| Binder | Kd [1] | koff [1] | kon [1] | Kd [2] | koff [2] | Inhibition of B cell proliferation induced by soluble CD40L trimer, Average (IC50 ng/ml) [4] | kon [2] | Kd [5] | koff [5] | kon [5] | Kd [6] | koff [6] | kon [6] | further results |
| --- | --- | --- | --- | --- | --- | --- | --- | --- | --- | --- | --- | --- | --- | --- |
| Y1258-hIgG1f (antibody, Purified chimeric antibody, mouse variable regions with human wild-type IgG1f; also called purified chimeric Y1258; Chim-P) heavy: not shown VL: DIVMTQSHKFMSTSVGDRVSITCKASQDVSTAVAWYQQKPGQSPKLLIYSASYRYTGVPDRFTGSGSGTDFTFTISSVQAEDLAVYYCQQHYSTPWTFGGGTKLEIK | 0.01 nM | 5.9e-07 s⁻¹ | 58000 M⁻¹ s⁻¹ | – | – | – | – | – | – | – | – | – | – | – |
| Y1262-hIgG1f (antibody, Purified chimeric antibody with human wild-type IgG1f; also called purified chimeric Y1262; Y1632-hIgG1f) heavy: not shown VL: DIVMTQSHKFMSTSVGDRVSITCKASQDVSTAVAWYQQKPGQSPKLLIYSASYRYTGVPDRFTGSGYGTDFTFTISSVQAEDLAVYYCQQHYSTPWTFGGGTKLEIK | 12 nM | 0.0055 s⁻¹ | 480000 M⁻¹ s⁻¹ | – | – | – | – | – | – | – | – | – | – | – |
| Y12XX-hz16 (antibody, human IgG1, kappa, V domains shown, Humanized, IgG1-P238K; supernatant sample) VH: QVQLVQSGAEVKKPGSSVKVSCKASGYAFTSYWMHWVRQRPGQGLEWMGFINPTTGYSEYNQKFKDRVTITADKSTSTAYMELSSLRSEDTAVYYCARWGLPPFAYWGQGTLVTVSS VL: DIQMTQSPSFLSASVGDRVTITCKASQDVSTAVAWYQQKPGKAPKLLIYSASYRYTGVPSRFSGSGSGTDFTLTISSLQPEDFATYYCQQHYSTPWTFGGGTKVEIKR | – | – | – | 3.2 nM | 0.00064 s⁻¹ | – | – | – | – | – | – | – | – | kon [3]: 200000 M⁻¹ s⁻¹ |
| Y12XX-hz42-P238K (antibody, human IgG1, kappa, V domains shown, also called Vh-hz14;Vk-hz3) VH: QVQLVQSGAEVKKPGSSVKVSCKASGYAFTSYWMHWVRQAPGQGLEWMGQINPTTGRSQYNEKFKTRVTITADKSTSTAYMELSSLRSEDTAVYYCARWGLQPFAYWGQGTLVTVSS VL: EIVMTQSPATLSVSPGERATLSCKASQDVSTAVAWYQQKPGQAPRLLIYSASYRYTGIPARFSGSGSGTEFTLTISSLQSEDFAVYYCQQHYSTPWTFGGGTKVEIKR | – | – | – | 3.5 nM | 0.00083 s⁻¹ | 12.1 ng/mL | 240000 M⁻¹ s⁻¹ | 2.3 nM | 0.00073 s⁻¹ | 310000 M⁻¹ s⁻¹ | 5.5 nM | 0.0034 s⁻¹ | 630000 M⁻¹ s⁻¹ | – |
| Y12XX-hz40-P238K (antibody, human IgG1, kappa, V domains shown, also called Vh-hz12;Vk-hz3) VH: QVQLVQSGAEVKKPGSSVKVSCKASGYAFTSYWMHWVRQAPGQGLEWMGQINPSQGRSQYNEKFKTRVTITADKSTSTAYMELSSLRSEDTAVYYCARWGLQPFAYWGQGTLVTVSS VL: EIVMTQSPATLSVSPGERATLSCKASQDVSTAVAWYQQKPGQAPRLLIYSASYRYTGIPARFSGSGSGTEFTLTISSLQSEDFAVYYCQQHYSTPWTFGGGTKVEIKR | – | – | – | 4.7 nM | 0.0011 s⁻¹ | 6 ng/mL | 240000 M⁻¹ s⁻¹ | 4.4 nM | 0.0013 s⁻¹ | 290000 M⁻¹ s⁻¹ | 10.9 nM | 0.0057 s⁻¹ | 520000 M⁻¹ s⁻¹ | – |
| Y12XX-hz28-P238K (antibody, human IgG1, kappa, also called Y12XX-hz28-IgG1-P238K; Y12XX-hx28-IgG1-P238K) heavy: not shown light: DIQMTQSPSFLSASVGDRVTITCKASQDVSTAVAWYQQKPGKAPKLLIYSASYRYTGVPSRFSGSGSGTDFTLTISSLQPEDFATYYCQQHYSTPWTFGGGTKVEIKRTVAAPSVFIFPPSDEQLKSGTASVVCLLNNFYPREAKVQWKVDNALQSGNSQESVTEQDSKDSTYSLSSTLTLSKADYEKHKVYACEVTHQGLSSPVTKSFNRGEC | – | – | – | 3.5 nM | 0.00062 s⁻¹ | 6.7 ng/mL | 180000 M⁻¹ s⁻¹ | 3.1 nM | 0.00069 s⁻¹ | 220000 M⁻¹ s⁻¹ | 8.5 nM | 0.0037 s⁻¹ | 440000 M⁻¹ s⁻¹ | Potency for inhibition of CD40L expressing CHO cells stimulation of B cell proliferation (IC50 ng/ml) [7]: 38.1 ng/mL; fold weaker binding compared to wild type (control-IgG1) (hCD64 [8]): 125 fold; Kd (hCD64 [9]): 25 nM; Kd (hCD32a-H131): > 50000 nM; Kd (hCD32a-R131): > 50000 nM; Kd (hCD32b): > 50000 nM; Kd (hCD16a-V158): > 50000 nM; Kd (hCD16a-F158): > 50000 nM; EC50 (read off the curve) (hCD64 [10]): ~30 nM |
